T1: nozzle protein gp12 (bacteriophage T7, UniProt P03747 1-794)
T1 construct: nozzle protein gp12 of bacteriophage T7, as it stands in the virion; Native virion protein; also called tail nozzle; source: T7 virions propagated in E. coli, purified (PEG precipitation, CsCl ultracentrifugation)
T1 sequence (looked up): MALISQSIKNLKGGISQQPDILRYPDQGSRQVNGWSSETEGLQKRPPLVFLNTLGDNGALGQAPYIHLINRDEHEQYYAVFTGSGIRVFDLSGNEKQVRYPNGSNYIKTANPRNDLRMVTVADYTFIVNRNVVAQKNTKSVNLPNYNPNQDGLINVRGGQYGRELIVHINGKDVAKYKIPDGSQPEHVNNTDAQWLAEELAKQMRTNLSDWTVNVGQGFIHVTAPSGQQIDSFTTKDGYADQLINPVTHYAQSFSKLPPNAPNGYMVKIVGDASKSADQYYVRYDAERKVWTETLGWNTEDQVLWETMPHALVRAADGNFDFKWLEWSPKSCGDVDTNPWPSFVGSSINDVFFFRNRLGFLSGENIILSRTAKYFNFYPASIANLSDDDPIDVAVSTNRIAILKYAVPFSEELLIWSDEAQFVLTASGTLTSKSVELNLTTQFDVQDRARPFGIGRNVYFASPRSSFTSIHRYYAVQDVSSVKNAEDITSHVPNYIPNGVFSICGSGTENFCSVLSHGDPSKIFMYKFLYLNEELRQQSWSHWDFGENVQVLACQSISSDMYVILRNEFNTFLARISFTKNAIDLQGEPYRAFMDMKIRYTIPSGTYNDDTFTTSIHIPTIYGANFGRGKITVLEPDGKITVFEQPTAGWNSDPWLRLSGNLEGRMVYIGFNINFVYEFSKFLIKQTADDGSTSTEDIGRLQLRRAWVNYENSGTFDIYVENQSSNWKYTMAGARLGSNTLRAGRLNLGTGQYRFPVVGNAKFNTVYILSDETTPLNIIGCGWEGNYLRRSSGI

T2: portal protein gp8 (bacteriophage T7, UniProt P03728 1-536)
T2 construct: portal protein gp8 of bacteriophage T7, as it stands in the virion; Native virion protein; also called dodecameric portal; source: T7 virions propagated in E. coli, purified (PEG precipitation, CsCl ultracentrifugation); copies: 12
T2 sequence (looked up): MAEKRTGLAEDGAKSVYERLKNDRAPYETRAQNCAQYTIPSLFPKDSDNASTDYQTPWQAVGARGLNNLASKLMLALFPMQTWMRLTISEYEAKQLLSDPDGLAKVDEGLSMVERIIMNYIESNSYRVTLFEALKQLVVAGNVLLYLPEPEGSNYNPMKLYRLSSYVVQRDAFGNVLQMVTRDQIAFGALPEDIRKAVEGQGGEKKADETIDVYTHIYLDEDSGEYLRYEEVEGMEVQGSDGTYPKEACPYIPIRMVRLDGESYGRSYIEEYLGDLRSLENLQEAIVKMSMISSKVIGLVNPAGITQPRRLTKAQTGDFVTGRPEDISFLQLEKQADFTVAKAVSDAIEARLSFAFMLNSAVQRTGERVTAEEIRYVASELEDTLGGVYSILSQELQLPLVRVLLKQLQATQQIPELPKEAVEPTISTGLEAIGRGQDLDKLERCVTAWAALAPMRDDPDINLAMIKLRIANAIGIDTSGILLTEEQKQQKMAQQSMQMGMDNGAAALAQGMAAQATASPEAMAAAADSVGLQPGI

T3: core protein gp16 (bacteriophage T7, UniProt P03726 1-1318)
T3 construct: core protein gp16 of bacteriophage T7, as it stands in the mature virion; Four-fold ring in the core of mature T7; source: T7 virions propagated in E. coli, purified (PEG precipitation, CsCl ultracentrifugation)
T3 sequence (looked up): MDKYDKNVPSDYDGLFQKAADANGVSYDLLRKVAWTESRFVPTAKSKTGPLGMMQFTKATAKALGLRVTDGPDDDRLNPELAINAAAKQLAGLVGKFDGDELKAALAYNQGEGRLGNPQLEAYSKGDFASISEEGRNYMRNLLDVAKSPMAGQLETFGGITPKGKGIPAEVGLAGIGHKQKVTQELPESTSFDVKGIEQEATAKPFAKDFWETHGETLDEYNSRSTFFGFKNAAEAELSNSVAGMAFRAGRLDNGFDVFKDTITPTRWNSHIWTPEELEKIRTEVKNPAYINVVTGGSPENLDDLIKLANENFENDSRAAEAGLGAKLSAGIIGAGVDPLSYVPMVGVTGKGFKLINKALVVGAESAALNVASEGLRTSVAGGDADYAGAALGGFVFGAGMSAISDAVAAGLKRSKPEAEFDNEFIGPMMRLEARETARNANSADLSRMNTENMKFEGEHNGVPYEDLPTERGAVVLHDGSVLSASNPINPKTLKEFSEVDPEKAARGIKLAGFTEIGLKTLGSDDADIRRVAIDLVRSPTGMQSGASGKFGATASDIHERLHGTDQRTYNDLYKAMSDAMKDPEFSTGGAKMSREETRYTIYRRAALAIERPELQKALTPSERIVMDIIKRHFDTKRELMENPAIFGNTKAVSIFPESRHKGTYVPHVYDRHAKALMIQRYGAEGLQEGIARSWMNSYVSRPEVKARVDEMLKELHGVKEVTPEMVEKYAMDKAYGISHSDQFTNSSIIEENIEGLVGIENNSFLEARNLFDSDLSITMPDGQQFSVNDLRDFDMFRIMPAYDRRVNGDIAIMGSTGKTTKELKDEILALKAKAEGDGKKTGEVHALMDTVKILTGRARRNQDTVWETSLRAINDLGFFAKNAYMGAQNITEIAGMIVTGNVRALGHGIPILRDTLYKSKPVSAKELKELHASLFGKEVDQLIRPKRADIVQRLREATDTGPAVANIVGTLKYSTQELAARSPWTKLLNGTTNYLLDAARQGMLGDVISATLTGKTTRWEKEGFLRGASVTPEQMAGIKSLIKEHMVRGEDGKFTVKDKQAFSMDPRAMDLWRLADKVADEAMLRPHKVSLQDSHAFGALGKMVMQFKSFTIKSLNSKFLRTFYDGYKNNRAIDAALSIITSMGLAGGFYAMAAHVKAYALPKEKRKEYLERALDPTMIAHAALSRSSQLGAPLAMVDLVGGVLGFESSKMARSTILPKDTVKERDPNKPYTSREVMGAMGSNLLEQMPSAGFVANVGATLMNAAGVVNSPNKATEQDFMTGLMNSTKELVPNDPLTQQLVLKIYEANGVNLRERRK

B1: adaptor protein gp11 (natural protein, bacteriophage T7, UniProt P03746 1-196, looked up)
chain: MRSYDMNVETAAELSAVNDILASIGEPPVSTLEGDANADAANARRILNKINRQIQSRGWTFNIEEGITLLPDVYSNLIVYSDDYLSLMSTSGQSIYVNRGGYVYDRTSQSDRFDSGITVNIIRLRDYDEMPECFRYWIVTKASRQFNNRFFGAPEVEGVLQEEEDEARRLCMEYEMDYGGYNMLDGDAFTSGLLTR
notes: adaptor protein gp11 of bacteriophage T7, as it stands in the virion; Native virion protein; source: T7 virions propagated in E. coli, purified (PEG precipitation, CsCl ultracentrifugation); copies: 12
B2: core protein gp15 (natural protein, bacteriophage T7, UniProt P03725 1-747, looked up)
chain: MSKIESALQAAQPGLSRLRGGAGGMGYRAATTQAEQPRSSLLDTIGRFAKAGADMYTAKEQRARDLADERSNEIIRKLTPEQRREALNNGTLLYQDDPYAMEALRVKTGRNAAYLVDDDVMQKIKEGVFRTREEMEEYRHSRLQEGAKVYAEQFGIDPEDVDYQRGFNGDITERNISLYGAHDNFLSQQAQKGAIMNSRVELNGVLQDPDMLRRPDSADFFEKYIDNGLVTGAIPSDAQATQLISQAFSDASSRAGGADFLMRVGDKKVTLNGATTTYRELIGEEQWNALMVTAQRSQFETDAKLNEQYRLKINSALNQEDPRTAWEMLQGIKAELDKVQPDEQMTPQREWLISAQEQVQNQMNAWTKAQAKALDDSMKSMNKLDVIDKQFQKRINGEWVSTDFKDMPVNENTGEFKHSDMVNYANKKLAEIDSMDIPDGAKDAMKLKYLQADSKDGAFRTAIGTMVTDAGQEWSAAVINGKLPERTPAMDALRRIRNADPQLIAALYPDQAELFLTMDMMDKQGIDPQVILDADRLTVKRSKEQRFEDDKAFESALNASKAPEIARMPASLRESARKIYDSVKYRSGNESMAMEQMTKFLKESTYTFTGDDVDGDTVGVIPKNMMQVNSDPKSWEQGRDILEEARKGIIASNPWITNKQLTMYSQGDSIYLMDTTGQVRVRYDKELLSKVWSENQKKLEEKAREKALADVNKRAPIVAATKAREAAAKRVREKRKQTPKFIYGRKE
notes: core protein gp15 of bacteriophage T7, as it stands in the mature virion; Eight-fold ring in the core of mature T7; source: T7 virions propagated in E. coli, purified (PEG precipitation, CsCl ultracentrifugation)

Experiments:
nozzle protein gp12 = target: T1, nozzle protein gp12; test: cryo-EM structure; DNA-ejected T7: purified mature T7 incubated with rough LPS (250 µg/mL) at 37°C for 3 h; entire particle asymmetric 8.2 Å; portal–tail complex 3.5 Å (six-fold); settings: both partners purified
portal protein gp8 = target: T2, portal protein gp8; test: as above; settings: both partners purified
[1] = target: the molecule itself; test: cryo-EM structure; mature T7 virions, in situ; entire particle asymmetric 6.1 Å; local reconstructions of core complex 3 Å (four-fold), portal 2.5 Å (twelve-fold), portal–tail complex 2.7 Å (six-fold)
core protein gp16 = target: T3, core protein gp16; test: as above; settings: both partners purified

Binder | binding result (nozzle protein gp12) | binding result (portal protein gp8) | stoichiometry N [1] | binding result (core protein gp16)
B1 | binds | binds | 12 | –
B2 | – | – | 8 | binds
